# Data taken from PMC12855868, “Deep Mutational Scanning of FDX1 Identifies Key Structural Determinants of Lipoylation and Cuproptosis” (Nature Communications, 2025).
# T1: FDXR (a.a 33-491), tagless (human, UniProt P22570 33-491, labelled with the RED-NHS 2nd generation protein labeling kit)
# T1 construct: ferredoxin reductase (FDXR), human, residues 33-491, lacking the mitochondrial transit peptide; pDWSUMO; Cleavage of the SUMO tag by ULP1 leaves a Gly-His appendage at the N-terminus; also called ferredoxin reductase; mitochondrial NADPH-dependent ferredoxin reductase; source: E. coli BL21 (DE3), purified; not shown: His6-SUMO, N-terminal, cleaved
# T1 sequence (looked up): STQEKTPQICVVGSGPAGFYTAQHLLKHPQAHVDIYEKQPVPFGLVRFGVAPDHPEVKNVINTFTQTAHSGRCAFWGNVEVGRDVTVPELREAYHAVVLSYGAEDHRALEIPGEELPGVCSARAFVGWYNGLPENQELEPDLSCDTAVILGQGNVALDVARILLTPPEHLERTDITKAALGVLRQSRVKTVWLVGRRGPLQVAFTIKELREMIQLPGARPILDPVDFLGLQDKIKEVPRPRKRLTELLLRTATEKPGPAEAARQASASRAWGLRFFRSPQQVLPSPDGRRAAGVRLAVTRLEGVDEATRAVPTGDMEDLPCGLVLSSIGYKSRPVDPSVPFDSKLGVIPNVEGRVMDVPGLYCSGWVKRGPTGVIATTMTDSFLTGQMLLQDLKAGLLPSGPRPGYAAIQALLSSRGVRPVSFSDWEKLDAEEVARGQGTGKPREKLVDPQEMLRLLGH
# T2: LIAS (aa 28-372), tagless (UniProt O43766 28-372)
# T2 construct: lipoic acid synthase (LIAS), residues 28-372, lacking the mitochondrial transit peptide; pDWSUMO; Cleavage of the SUMO tag by ULP1 leaves a Gly-His appendage at the N-terminus; Carries reconstituted Fe-S clusters; also called lipoic acid synthase; source: E. coli BL21 (DE3) carrying pDB1282, purified, iron-sulfur clusters reconstituted; not shown: His6-SUMO, N-terminal, cleaved
# T2 sequence (looked up): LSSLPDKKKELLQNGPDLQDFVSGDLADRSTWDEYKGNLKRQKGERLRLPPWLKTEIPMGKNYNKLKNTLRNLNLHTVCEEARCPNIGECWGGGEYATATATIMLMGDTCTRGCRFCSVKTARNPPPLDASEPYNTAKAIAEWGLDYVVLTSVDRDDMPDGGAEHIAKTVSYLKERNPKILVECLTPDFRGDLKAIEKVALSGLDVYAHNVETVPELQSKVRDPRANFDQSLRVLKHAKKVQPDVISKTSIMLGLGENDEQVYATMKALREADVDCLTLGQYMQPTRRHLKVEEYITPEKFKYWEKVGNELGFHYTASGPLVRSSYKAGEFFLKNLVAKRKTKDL
# T3: FDX1 WT (aa 61-184), N-terminal hexa-histidine tag (human), P10109
# T3 chain: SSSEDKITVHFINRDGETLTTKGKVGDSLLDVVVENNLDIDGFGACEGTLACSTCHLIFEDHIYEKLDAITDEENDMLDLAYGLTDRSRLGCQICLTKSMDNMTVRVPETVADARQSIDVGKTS
# Assays:
# [1] = target: T1, FDXR (a.a 33-491), tagless; test: Temperature-Related Intensity Change (TRIC) fluorescence; 50 nM RED-NHS-labelled tagless FDXR as target, His-tagged FDX1 WT or variant serially diluted (11 points from 54-68 µM); anaerobic; 25 mM MOPS pH 7.5, 125 mM KCl, 125 mM NaCl, 5% glycerol, 0.05% Tween; 30 min at room temperature, read at 22 °C; Dianthus NT.23; settings: both partners purified
# [2] = target: T2, LIAS (aa 28-372), tagless; test: Temperature-Related Intensity Change (TRIC) fluorescence; 100 nM Red-Tris-NTA-labelled His-tagged FDX1 WT or variant as target, tagless LIAS serially diluted (10 points from 63 µM); anaerobic; 25 mM MOPS pH 7.5, 125 mM KCl, 125 mM NaCl, 5% glycerol, 0.05% Tween; 30 min at room temperature, read at 22 °C; Dianthus NT.23; settings: both partners purified
# [3] = target: T3, FDX1 WT (aa 61-184), N-terminal …; test: as above; settings: remark: other sources report otherwise
Binder,Kd [1] [nM],Kd [2] [nM],Kd [3] [nM]
"FDX1 WT (aa 61-184), N-terminal hexa-histidine tag (domain or fragment, human, UniProt P10109 61-184, looked up, ferredoxin 1 (FDX1), human, residues 61-184, lacking the mitochondrial transit peptide; pET28a; Carries a reconstituted Fe-S cluster; In the FDX1-LIAS TRIC assay it was labelled on the His tag with the Red-Tris-NTA 2nd generation dye; in the FDXR assay it was the unlabelled ligand; also called ferredoxin 1; source: E. coli BL21 (DE3) carrying pDB1282, purified, iron-sulfur cluster reconstituted; …) SSSEDKITVHFINRDGETLTTKGKVGDSLLDVVVENNLDIDGFGACEGTLACSTCHLIFEDHIYEKLDAITDEENDMLDLAYGLTDRSRLGCQICLTKSMDNMTVRVPETVADARQSIDVGKTS",1500 ± 200,,
"FDX1 D136R (aa 61-184), N-terminal hexa-histidine tag (domain or fragment, human, UniProt P10109 61-184, looked up, ferredoxin 1 (FDX1), human, residues 61-184, lacking the mitochondrial transit peptide; pET28a; Carries a reconstituted Fe-S cluster; Labelled with Red-Tris-NTA dye in the LIAS assay only; source: E. coli BL21 (DE3) carrying pDB1282, purified, iron-sulfur cluster reconstituted; not shown: His6, N-terminal, kept) SSSEDKITVHFINRDGETLTTKGKVGDSLLDVVVENNLDIDGFGACEGTLACSTCHLIFEDHIYEKLDAITDEENRMLDLAYGLTDRSRLGCQICLTKSMDNMTVRVPETVADARQSIDVGKTS",2200 ± 300,4500 ± 800,
"FDX1 D136A (aa 61-184), N-terminal hexa-histidine tag (domain or fragment, human, UniProt P10109 61-184, looked up, ferredoxin 1 (FDX1), human, residues 61-184, lacking the mitochondrial transit peptide; pET28a; Carries a reconstituted Fe-S cluster; Labelled with Red-Tris-NTA dye in the LIAS assay only; source: E. coli BL21 (DE3) carrying pDB1282, purified, iron-sulfur cluster reconstituted; not shown: His6, N-terminal, kept) SSSEDKITVHFINRDGETLTTKGKVGDSLLDVVVENNLDIDGFGACEGTLACSTCHLIFEDHIYEKLDAITDEENAMLDLAYGLTDRSRLGCQICLTKSMDNMTVRVPETVADARQSIDVGKTS",1800 ± 300,3200 ± 300,

# Continued, values first:
Kd [1] [nM],Kd [2] [nM],Kd [3] [nM],Binder
1500 ± 300,4900 ± 600,,"FDX1 D139A (aa 61-184), N-terminal hexa-histidine tag (domain or fragment, human, UniProt P10109 61-184, looked up, ferredoxin 1 (FDX1), human, residues 61-184, lacking the mitochondrial transit peptide; pET28a; Carries a reconstituted Fe-S cluster; Labelled with Red-Tris-NTA dye in the LIAS assay only; source: E. coli BL21 (DE3) carrying pDB1282, purified, iron-sulfur cluster reconstituted; not shown: His6, N-terminal, kept) SSSEDKITVHFINRDGETLTTKGKVGDSLLDVVVENNLDIDGFGACEGTLACSTCHLIFEDHIYEKLDAITDEENDMLALAYGLTDRSRLGCQICLTKSMDNMTVRVPETVADARQSIDVGKTS"
2100 ± 200,2500 ± 600,,"FDX1 D139R (aa 61-184), N-terminal hexa-histidine tag (domain or fragment, human, UniProt P10109 61-184, looked up, ferredoxin 1 (FDX1), human, residues 61-184, lacking the mitochondrial transit peptide; pET28a; Carries a reconstituted Fe-S cluster; Labelled with Red-Tris-NTA dye in the LIAS assay only; source: E. coli BL21 (DE3) carrying pDB1282, purified, iron-sulfur cluster reconstituted; not shown: His6, N-terminal, kept) SSSEDKITVHFINRDGETLTTKGKVGDSLLDVVVENNLDIDGFGACEGTLACSTCHLIFEDHIYEKLDAITDEENDMLRLAYGLTDRSRLGCQICLTKSMDNMTVRVPETVADARQSIDVGKTS"
,,3200,"LIAS (aa 28-372), tagless, O43766 28-372 (enzyme) LSSLPDKKKELLQNGPDLQDFVSGDLADRSTWDEYKGNLKRQKGERLRLPPWLKTEIPMGKNYNKLKNTLRNLNLHTVCEEARCPNIGECWGGGEYATATATIMLMGDTCTRGCRFCSVKTARNPPPLDASEPYNTAKAIAEWGLDYVVLTSVDRDDMPDGGAEHIAKTVSYLKERNPKILVECLTPDFRGDLKAIEKVALSGLDVYAHNVETVPELQSKVRDPRANFDQSLRVLKHAKKVQPDVISKTSIMLGLGENDEQVYATMKALREADVDCLTLGQYMQPTRRHLKVEEYITPEKFKYWEKVGNELGFHYTASGPLVRSSYKAGEFFLKNLVAKRKTKDL"
